# Measurements as given in the supplement of paper PMC9112550, “Optimization of the antimicrobial peptide Bac7 by deep mutational scanning” (BMC Biology, 2022).
# Test system: Escherichia coli TOP10
# Experiment: shrunken log2 fold change of peptide-encoding DNA abundance (4.5 h post-induction vs induction); higher = less antimicrobial activity (less host growth inhibition)
# Conditions: time post-induction: 4.5 h; library: site-saturation at positions 5, 18, 19, 20
# 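Further: peptides expressed intracellularly from a pBAD plasmid library in pooled LB shake-flask culture, induced with 0.3% L-arabinose, DNA abundance read by NGS, three biological replicates, DESeq2 with apeglm shrinkage.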
row,Sequence,shrunken log2 fold change
1,RRIRCRPPRLPRPRPRPGVVPRP,0.147
2,RRIRARPPRLPRPRPRPLSYPRP,-0.00336
3,RRIRRRPPRLPRPRPRPKCDPRP,0.0319
4,RRIRDRPPRLPRPRPRPQDTPRP,-0.366
5,RRIRHRPPRLPRPRPRPCKHPRP,-1.38
6,RRIRQRPPRLPRPRPRPCRVPRP,-0.306
7,RRIRCRPPRLPRPRPRPRPQPRP,0.776
8,RRIRDRPPRLPRPRPRPQPDPRP,0.177
9,RRIRVRPPRLPRPRPRPKTFPRP,-0.0753
10,RRIRFRPPRLPRPRPRPPEDPRP,0.357
11,RRIRMRPPRLPRPRPRPQGRPRP,0.113
12,RRIRRRPPRLPRPRPRPEIIPRP,0.0119
13,RRIRNRPPRLPRPRPRPFFPPRP,-0.122
14,RRIRPRPPRLPRPRPRPPFNPRP,-0.126
15,RRIRQRPPRLPRPRPRPCYSPRP,-0.0444
16,RRIRGRPPRLPRPRPRPCYGPRP,-0.277
17,RRIRYRPPRLPRPRPRPTWWPRP,0.134
18,RRIRIRPPRLPRPRPRPPEIPRP,-0.578
19,RRIRKRPPRLPRPRPRPAEPPRP,0.429
20,RRIRTRPPRLPRPRPRPPAEPRP,0.378
21,RRIRWRPPRLPRPRPRPHSYPRP,-0.0789
22,RRIRPRPPRLPRPRPRPYGMPRP,-0.155
23,RRIRIRPPRLPRPRPRPIAIPRP,-0.257
24,RRIRDRPPRLPRPRPRPLPMPRP,0.0543
25,RRIRGRPPRLPRPRPRPGIRPRP,0.208

row,Sequence,shrunken log2 fold change
1,RRIRCRPPRLPRPRPRPRQHPRP,-0.0138
2,RRIRARPPRLPRPRPRPAPKPRP,1
3,RRIRGRPPRLPRPRPRPKMSPRP,0.344
4,RRIRMRPPRLPRPRPRPCMMPRP,-0.124
5,RRIRCRPPRLPRPRPRPYYFPRP,-1.08
6,RRIRFRPPRLPRPRPRPLPQPRP,1.15
7,RRIRCRPPRLPRPRPRPGRQPRP,0.285
8,RRIRKRPPRLPRPRPRPQLFPRP,0.364
9,RRIRTRPPRLPRPRPRPWPTPRP,0.371
10,RRIRTRPPRLPRPRPRPTLCPRP,0.148
11,RRIRPRPPRLPRPRPRPLTVPRP,-0.126
12,RRIRGRPPRLPRPRPRPKYNPRP,0.02
13,RRIRSRPPRLPRPRPRPALLPRP,0.42
14,RRIRMRPPRLPRPRPRPKMCPRP,0.0261
15,RRIRNRPPRLPRPRPRPYNFPRP,-0.176
16,RRIRARPPRLPRPRPRPRIGPRP,0.267
17,RRIRKRPPRLPRPRPRPIANPRP,0.339
18,RRIRRRPPRLPRPRPRPRIKPRP,0.142
19,RRIRERPPRLPRPRPRPIHLPRP,-0.0986
20,RRIRHRPPRLPRPRPRPCVSPRP,-0.311
21,RRIRNRPPRLPRPRPRPDKWPRP,-0.258
22,RRIRPRPPRLPRPRPRPVCRPRP,-0.0794
23,RRIRMRPPRLPRPRPRPEDAPRP,3.45
24,RRIRRRPPRLPRPRPRPMVCPRP,0.0487
25,RRIRTRPPRLPRPRPRPWALPRP,-0.23

row,Sequence,shrunken log2 fold change
1,RRIRLRPPRLPRPRPRPFFHPRP,-0.37
2,RRIRYRPPRLPRPRPRPEWAPRP,0.193
3,RRIRRRPPRLPRPRPRPKNIPRP,-0.136
4,RRIRIRPPRLPRPRPRPSKKPRP,-0.229
5,RRIRYRPPRLPRPRPRPCQVPRP,-0.116
6,RRIRERPPRLPRPRPRPFSDPRP,-0.0836
7,RRIRCRPPRLPRPRPRPWNEPRP,-0.705
8,RRIRHRPPRLPRPRPRPLKAPRP,-0.364
9,RRIRMRPPRLPRPRPRPHYWPRP,-0.121
10,RRIRYRPPRLPRPRPRPIREPRP,-0.271
11,RRIRLRPPRLPRPRPRPIIAPRP,-0.0536
12,RRIRPRPPRLPRPRPRPMQHPRP,-0.0486
13,RRIRKRPPRLPRPRPRPPHWPRP,0.756
14,RRIRKRPPRLPRPRPRPEFSPRP,0.397
15,RRIRCRPPRLPRPRPRPFPQPRP,-0.265
16,RRIRRRPPRLPRPRPRPVIGPRP,0.149
17,RRIRQRPPRLPRPRPRPYYSPRP,-0.39
18,RRIRIRPPRLPRPRPRPAKLPRP,-0.302
19,RRIRMRPPRLPRPRPRPDQCPRP,0.0192
20,RRIRNRPPRLPRPRPRPMGCPRP,-0.187
21,RRIRMRPPRLPRPRPRPCGCPRP,0.0371
22,RRIRLRPPRLPRPRPRPSEMPRP,-0.0614
23,RRIRLRPPRLPRPRPRPWPDPRP,-0.148
24,RRIRWRPPRLPRPRPRPPKIPRP,0.22
25,RRIRARPPRLPRPRPRPCRYPRP,-0.215

row,Sequence,shrunken log2 fold change
1,RRIRHRPPRLPRPRPRPQQVPRP,-0.0214
2,RRIRTRPPRLPRPRPRPAGCPRP,0.316
3,RRIRPRPPRLPRPRPRPPSKPRP,0.105
4,RRIRCRPPRLPRPRPRPVWAPRP,0.351
5,RRIRSRPPRLPRPRPRPSWFPRP,-0.268
6,RRIRRRPPRLPRPRPRPTCPPRP,0.415
7,RRIRKRPPRLPRPRPRPNAAPRP,0.986
8,RRIRFRPPRLPRPRPRPMERPRP,-0.208
9,RRIRNRPPRLPRPRPRPHMYPRP,0.0526
10,RRIRIRPPRLPRPRPRPEMRPRP,-0.0182
11,RRIRYRPPRLPRPRPRPMRSPRP,-0.0201
12,RRIRPRPPRLPRPRPRPDDMPRP,0.0244
13,RRIRFRPPRLPRPRPRPYHWPRP,-0.208
14,RRIRERPPRLPRPRPRPHIWPRP,0.00885
15,RRIRMRPPRLPRPRPRPRVWPRP,2.08
16,RRIRGRPPRLPRPRPRPVENPRP,0.757
17,RRIRPRPPRLPRPRPRPIYNPRP,-0.837
18,RRIRRRPPRLPRPRPRPAWSPRP,0.321
19,RRIRLRPPRLPRPRPRPPRIPRP,0.0531
20,RRIRYRPPRLPRPRPRPGDQPRP,0.0121
21,RRIRMRPPRLPRPRPRPCGNPRP,0.137
22,RRIRERPPRLPRPRPRPEYCPRP,0.0191
23,RRIRLRPPRLPRPRPRPHSWPRP,0.0861
24,RRIRWRPPRLPRPRPRPIQLPRP,-0.304
25,RRIRMRPPRLPRPRPRPGYRPRP,0.158

row,Sequence,shrunken log2 fold change
1,RRIRMRPPRLPRPRPRPDSYPRP,0.0873
2,RRIRERPPRLPRPRPRPTMLPRP,0.00422
3,RRIRGRPPRLPRPRPRPHLDPRP,0.34
4,RRIRNRPPRLPRPRPRPTNFPRP,0.0354
5,RRIRTRPPRLPRPRPRPIEQPRP,-0.00141
6,RRIRQRPPRLPRPRPRPDSVPRP,-0.0518
7,RRIRRRPPRLPRPRPRPHKWPRP,2.57
8,RRIRERPPRLPRPRPRPVMIPRP,-0.22
9,RRIRVRPPRLPRPRPRPFESPRP,-0.0298
10,RRIRERPPRLPRPRPRPYHIPRP,-0.212
11,RRIRYRPPRLPRPRPRPVQNPRP,-0.0153
12,RRIRTRPPRLPRPRPRPKEGPRP,-0.0199
13,RRIRCRPPRLPRPRPRPTIGPRP,-0.0746
14,RRIRERPPRLPRPRPRPVIHPRP,-0.106
15,RRIRLRPPRLPRPRPRPQPCPRP,-0.215
16,RRIRKRPPRLPRPRPRPDPKPRP,0.549
17,RRIRERPPRLPRPRPRPHSWPRP,-0.183
18,RRIRLRPPRLPRPRPRPMDYPRP,-0.202
19,RRIRLRPPRLPRPRPRPTCWPRP,0.393
20,RRIRGRPPRLPRPRPRPCLCPRP,0.655
21,RRIRCRPPRLPRPRPRPYKYPRP,-0.551
22,RRIRERPPRLPRPRPRPTLYPRP,-0.184
23,RRIRHRPPRLPRPRPRPAQTPRP,-0.1
24,RRIRCRPPRLPRPRPRPVFKPRP,-0.355
25,RRIRMRPPRLPRPRPRPIFVPRP,-0.111

row,Sequence,shrunken log2 fold change
1,RRIRYRPPRLPRPRPRPPHQPRP,0.378
2,RRIRCRPPRLPRPRPRPVCNPRP,0.0532
3,RRIRHRPPRLPRPRPRPTNCPRP,-0.197
4,RRIRFRPPRLPRPRPRPEYKPRP,-0.0678
5,RRIRFRPPRLPRPRPRPYEEPRP,-0.221
6,RRIRYRPPRLPRPRPRPPIAPRP,0.00572
7,RRIRGRPPRLPRPRPRPKCDPRP,0.812
8,RRIRQRPPRLPRPRPRPPICPRP,0.0388
9,RRIRGRPPRLPRPRPRPILYPRP,0.0934
10,RRIRARPPRLPRPRPRPECTPRP,1.05
11,RRIRARPPRLPRPRPRPHMIPRP,0.028
12,RRIRKRPPRLPRPRPRPNNPPRP,-0.00604
13,RRIRMRPPRLPRPRPRPDGPPRP,0.0285
14,RRIRCRPPRLPRPRPRPQIVPRP,-0.345
15,RRIRRRPPRLPRPRPRPAEAPRP,0.148
16,RRIRKRPPRLPRPRPRPFEQPRP,0.0483
17,RRIRSRPPRLPRPRPRPESFPRP,-0.0898
18,RRIRHRPPRLPRPRPRPGCIPRP,-1.21
19,RRIRRRPPRLPRPRPRPLCWPRP,0.623
20,RRIRYRPPRLPRPRPRPLDHPRP,-0.119
21,RRIRLRPPRLPRPRPRPWSGPRP,-0.000803
22,RRIRYRPPRLPRPRPRPEEHPRP,0.0203
23,RRIRRRPPRLPRPRPRPYLQPRP,-0.548
24,RRIRMRPPRLPRPRPRPSTAPRP,0.788
25,RRIRCRPPRLPRPRPRPRRIPRP,-0.246
